According to publication PMC9813773, “LACC1 bridges NOS2 and polyamine metabolism in inflammatory macrophages” (Nature, 2022):
Changes are numbered by the printed parent chain. Numbers in names are those of the source.

B1: mLACC1 (Mus musculus) (protein)
chain: MAEAVLIDLSGLQLNAQKNCHETLLETLDGIHYHHAPKAKFLCIICCRNASKEKDGEYGLCELEAGNGFSRLAGKFETVSHPCLAASLYTIKQKIDEENLSCIKVIVPEHRKLLMKAYVGQLFTEVYEFEFEDLQGAWRDSLLKPSTGINVTTTQELEDIQHEIETYLRSLPALKGDLTIVTSPLIPDNFLHGFTTRTGGISSVPTLSSLNLFSSSKRRDPKVVVQENVRRLANAAGFNAEKFYRIKTDHASEVWVMGKKEPESYDGIVTNQRGVTITALGADCIPIVFADPVKKACGVAHSGWKGTLLGVAMATVNAMIAEYGCDVEDIIVVLGPSVGSCCFTLPKESAVSFHSLHPSCVRHFDSPRPYVDIRKATRILLERGGILPQNIQDQKEDLDLCTSCHPEKFFSHVRDGLNFGTQIGFISLRE
notes: codon-optimized synthetic cDNA in pMAL-C5x (MBP fusion), E. coli BL21(DE3), amylose resin; tag cleavage not described
B2: hLACC1 (Homo sapiens) (protein)
chain: MAEAVLIDLFGLKLNSQKNCHQTLLKTLNAVQYHHAAKAKFLCIMCCSNISYERDGEQDNCEIETSNGLSALLEEFEIVSCPSMAATLYTIKQKIDEKNLSSIKVIVPRHRKTLMKAFIDQLFTDVYNFEFEDLQVTFRGGLFKQSIEINVITAQELRGIQNEIETFLRSLPALRGKLTIITSSLIPDIFIHGFTTRTGGISYIPTLSSFNLFSSSKRRDPKVVVQENLRRLANAAGFNVEKFYRIKTHHSNDIWIMGRKEPDSYDGITTNQRGVTIAALGADCIPIVFADPVKKACGVAHAGWKGTLLGVAMATVNAMIAEYGCSLEDIVVVLGPSVGPCCFTLPRESAEAFHNLHPACVQLFDSPNPCIDIRKATRILLEQGGILPQNIQDQNQDLNLCTSCHPDKFFSHVRDGLNFGTQIGFISIKE
notes: as for B1
B3: hLACC1 (Homo sapiens; K38E) (protein)
chain: B2 chain with K38E
notes: as for B1
B4: hLACC1 (Homo sapiens; I254V) (protein)
chain: B2 chain with I254V
notes: as for B1
B5: hLACC1 (Homo sapiens; C284R) (protein)
chain: B2 chain with C284R
notes: as for B1

Assays:
[1] = substrate: NC(=O)NCCC[C@H](N)C(=O)O; test: L-Orn formation by LC-QQQ-MS, Michaelis-Menten; type: biochemical, Mus musculus; conditions: 5-500 μM L-Cit, PBS pH 7.4, 1 μM ZnSO4, 37°C
[2] = substrate: NC(=O)NCCC[C@H](N)C(=O)O; test: L-Orn formation by LC-QQQ-MS, Michaelis-Menten; type: biochemical, Homo sapiens; conditions: 5-500 μM L-Cit, PBS pH 7.4, 1 μM ZnSO4, 37°C

Protein | Km [1] [µM] | kcat [1] [s⁻¹] | Km [2] [µM] | kcat [2] [s⁻¹]
B1 | 117.2 | 0.0055 |  | 
B2 |  |  | 163.7 | 0.00567
B3 |  |  | 81.58 | 0.0051
B4 |  |  | 181.3 | 0.00433
B5 |  |  | 155.8 | 0.00275
